“And” between values parts separate entries of the source, which are not always exact repeats. Identical values can stand only once. Like-named read-outs stand apart in the source and are kept apart here.
Columns and labels:
[1] = target: SARS-CoV-2 S1 (Sino Biological 40591-V08B1) (SARS-CoV-2) (UniProt P0DTC2)
[2] = target: snoopTag-msfGFP-3C cleavage site-TwinStrep
lysozyme [3] = target: lysozyme
[4] = target: SARS-CoV-2 S1 (Sino Biological 40591-V08B1) (SARS-CoV-2) (UniProt P0DTC2); remark: listed apart in the source
[5] = target: SARS-CoV-2 Spike-pseudotyped lentivirus (GeneCopoeia CAT. SP101-100) (SARS-CoV-2) (UniProt P0DTC2)
[6] = target: Cysteine terminated spyTag peptide (…); experiment: QCMD, nanobody-SpyCatcher coupling to Cys-SpyTag peptide on gold (SpyDirect)
lysozyme [7] = experiment: OECT sensor, SpyDirect SARS-CoV-1 nanobody gates after 7-day storage, lysozyme
[8] = target: SARS-CoV-2 S1 (Sino Biological 40591-V08B1) (SARS-CoV-2) (UniProt P0DTC2); experiment: OECT sensor, SpyDirect SARS-CoV-1 nanobody gate, 1.2 aM spike (FIG. 4C, saliva)

Sequence of lysozyme (P00698 19-147): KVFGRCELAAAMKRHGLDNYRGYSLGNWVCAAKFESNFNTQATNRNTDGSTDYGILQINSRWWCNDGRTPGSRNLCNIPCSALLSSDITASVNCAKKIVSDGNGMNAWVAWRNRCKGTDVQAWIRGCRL

VHH72-8 aa-spyCatcher-3C cleavage site-His8
Density per cm^2 [1]: 5.2e+12 per cm^2 and 2.3e+12 per cm^2
gained mass (ng/cm^2) [1]: 290 ng/cm^2 and 659 ng/cm^2
gained mass (ng/cm^2) [2]: < 1 ng/cm^2
normalized response (NR) (lysozyme [3]): < 15%
normalized response (NR) [4]: 20%
normalized response (NR) [5]: 28%
Density per cm^2 [6]: 7.8e+12 per cm^2
gained mass (ng/cm^2) [6]: 376 ng/cm^2
normalized response (NR) (lysozyme [7]): < 12%
normalized response (NR) [8]: 20%

Reference: patent publication US20250027901A1
